Source: the RNAGym collection of RNA variant scans (doi:10.7554/elife.80360)

B1: Hairpin Ribozyme (parent)
chain: GUCCUCUUUCACGUGCGCGUGAAAGAGAGAAGUGAACCAGAGAAACACACGUUGUGGUAUAUUACCUGGUA

Variants of: B1
Experiment: self-cleavage, relative activity (ratio to wild type); higher = more cleavage; co-transcriptional

Variant | self-cleavage
GUCCUCUUUCACGCGCGCGUGAAAGAAAGAAGUGAACCAGAGAAACACACGUUGUGGUAUAUUACCUGGUA [U14C G27A] | 0.423
GUCCUCUUUCACGAGCGCGCGAAAGAGAGAAGUGAACCAGAGAAACACACGUUGUGGUAUAUUACCUGGUA [U14A U20C] | 1
GUCCUCUUUCACGAGCGCGGGAAAGAGAGAAGUGAACCAGAGAAACACACGUUGUGGUAUAUUACCUGGUA [U14A U20G] | 0.663
GUCCUCUUUCACGCGCGCGUGAAAGAGAGAAGUGAACCAGAGAAACACACGUUGUGGUAUGUUACCUGGUA [U14C A61G] | 0.133
GUCCUCUUUCACGCGCGCGUGAAAGAGAGAAGUGAACCAGAGAAACACACGUUGUGGUAUCUUACCUGGUA [U14C A61C] | 0.162
GUCCUCUUUCACGCGCGCGUGAAAGAGAGAAGUGAACCAGAGAAACACACGUUGUGGUAUAUUACCUGGUG [U14C A71G] | 1.24
GUCCUCUUUCACGCGCGCGUGAAAGAGAGAAGUGAACCAGAGAAACACACGUUGUGGUAUAUUACCUGGUC [U14C A71C] | 1.59
GUCCUCUUUCACGCGCGCGUGAAAGAGAGAAGUGAACCAGAGAAACACACGUUUUGGUAUAUUACCUGGUA [U14C G54U] | 0.541
GUCCUCUUUCACGCGCGCGUGAAAGAGAGAAGUGAACCAGAGAAACACACGUUAUGGUAUAUUACCUGGUA [U14C G54A] | 0.509
GUCCUCUUUCACGCGCGCGUGAACGAGAGAAGUGAACCAGAGAAACACACGUUGUGGUAUAUUACCUGGUA [U14C A24C] | 0.943
GUCCUCUUUCACGCGCGCGUGAAGGAGAGAAGUGAACCAGAGAAACACACGUUGUGGUAUAUUACCUGGUA [U14C A24G] | 0.81
GUCCUCUUUCACGCGCGCGUGAAUGAGAGAAGUGAACCAGAGAAACACACGUUGUGGUAUAUUACCUGGUA [U14C A24U] | 0.545
GUCCUCUUUCACGCGCGCGUAAAAGAGAGAAGUGAACCAGAGAAACACACGUUGUGGUAUAUUACCUGGUA [U14C G21A] | 0.865
GUCCUCUUUCACGCGCGCGUGAAAGAGAGAAGUGAACCAGAGAAACACACUUUGUGGUAUAUUACCUGGUA [U14C G51U] | 1.07
GUCCUCUUUCACGCGCGCGUGAAAGAGAGAAGUGAACCAGAGAAACACACAUUGUGGUAUAUUACCUGGUA [U14C G51A] | 0.854
GUCCUCUUUCACGCGCGCGUGAAAGAGAGAAGUGAAGCAGAGAAACACACGUUGUGGUAUAUUACCUGGUA [U14C C37G] | 0.319
GUCCUCUUUCACGCGCGCGUGAAAGAGAGAAGUGAAACAGAGAAACACACGUUGUGGUAUAUUACCUGGUA [U14C C37A] | 0.245
GUCCUCUUUCACGAGCGCGUGAAAGAGAGAAGUGAACCAGAGAAACACACGUUGUGGUAUAUUACCUAGUA [U14A G68A] | 0.173
GUCCUCUUUCACGAGCGCGUGAAAGAGAGAAGUGAACCAGAGAAACACACGUUGUGGUAUAUUACCUUGUA [U14A G68U] | 0.307

Variant | self-cleavage
GUCCUCUUUCACGAGCGCGUGAAAGAGAGAAGUGAACCAGAGAAACACACGUUGUGGUAUAUUACCUGUUA [U14A G69U] | 0.205
GUCCUCUUUCACGAGCGCGUGAAAGAGAGAAGUGAACCAGAGAAACACACGUUGUGGUAUAUUACCUGCUA [U14A G69C] | 0.337
GUCCUCUUUCACGAGCGCGUGAAAGAGAGAAGUGAACCAGAAAAACACACGUUGUGGUAUAUUACCUGGUA [U14A G42A] | 0.108
GUCCUCUUUCACGCGCGCGUGAAAGAGAGAAGUGAACCAGAGAAUCACACGUUGUGGUAUAUUACCUGGUA [U14C A45U] | 0.119
GUCCUCUUUCACGCGCGCGUGAAAGAGAGAAGUGAACCAGAGAAACACACGUUGUGGUAUACUACCUGGUA [U14C U62C] | 0.0439
GUCCUCUUUCACGCGCGCGUGAAAGAGAGAAGUGAACCAGAGAAACACACGUUGUGGUAUAGUACCUGGUA [U14C U62G] | 0.218
GUCCUCUUUCACGCGCGCGUGAAAGAGAGAAGUGAACCAGAGAAACACACGUUGUGGUAUAAUACCUGGUA [U14C U62A] | 0.142
GUCCUCUUUCACGCGCGCGUGAAAGAGAGAAGUGAACCAGAGAAACACGCGUUGUGGUAUAUUACCUGGUA [U14C A49G] | 0.553
GUCCUCUUUCACGCGCGCGUGAAAGAGAGAAGUGAACCAGAGAAACACACGUUGUUGUAUAUUACCUGGUA [U14C G56U] | 0.126
GUCCUCUUUCACGCGCGCGUGAAAGAGAGAAGUGAACCAGAGAAACACACGUUGUCGUAUAUUACCUGGUA [U14C G56C] | 0.163
GUCCUCUUUCACGAGCGCGUGAAAGAGAGAAGUGAACCAGAGAAACACACGUGGUGGUAUAUUACCUGGUA [U14A U53G] | 0.899
GUCCUCUUUCACGAGCGCGUGAAAGAGAGAAGUGAACCAGAGAAACACACGUCGUGGUAUAUUACCUGGUA [U14A U53C] | 1.07
GUCCUCUUUCACGAGCGCGUGAAAGAGAGAAGUGAACCAGAGAAACACACGUUGUGGUAUAGUACCUGGUA [U14A U62G] | 0.125
GUCCUCUUUCACGAGCGCGUGAAAGAGAGAAGUGAACCAGAGAAACACACGUUGUGGUAUACUACCUGGUA [U14A U62C] | 0.257
GUCCUCUUUCACGAGCGCGUGAAAGAGAGAAGUGAACCAGAGAAACACACCUUGUGGUAUAUUACCUGGUA [U14A G51C] | 0.89
GUCCUCUUUCACGAGCGCGUGAAAGAGAGAAGUGAACCAGAGAAACACACAUUGUGGUAUAUUACCUGGUA [U14A G51A] | 0.957
GUCCUCUUUCACGCGCGCGUGAAAGAGAGAGGUGAACCAGAGAAACACACGUUGUGGUAUAUUACCUGGUA [U14C A31G] | 0.737
GUCCUCUUUCACGCGCGCGUGAAAGAGAGAAGUGAACCAGAGAAACACACGUUGUGGUAUAUUCCCUGGUA [U14C A64C] | 0.257
GUCCUCUUUCACGCGCGCGUGAAAGAGAGAAGUGAACCAGAGAAACACACGUUGUGGUAUAUUUCCUGGUA [U14C A64U] | 0.199
